B1: Mothers against decapentaplegic homolog 4 (Homo sapiens), Q13485 (parent)
chain: MDNMSITNTPTSNDACLSIVHSLMCHRQGGESETFAKRAIESLVKKLKEKKDELDSLITAITTNGAHPSKCVTIQRTLDGRLQVAGRKGFPHVIYARLWRWPDLHKNELKHVKYCQYAFDLKCDSVCVNPYHYERVVSPGIDLSGLTLQSNAPSSMMVKDEYVHDFEGQPSLSTEGHSIQTIQHPPSNRASTETYSTPALLAPSESNATSTANFPNIPVASTSQPASILGGSHSEGLLQIASGPQPGQQQNGFTGQPATYHHNSTTTWTGSRTAPYTPNLPHHQNGHLQHHPPMPPHPGHYWPVHNELAFQPPISNHPAPEYWCSIAYFEMDVQVGETFKVPSSCPIVTVDGYVDPSGGDRFCLGQLSNVHRTEAIERARLHIGKGVQLECKGEGDVWVRCLSDHAVFVQSYYLDREAGRAPGDAVHKIYPSAYIKVFDLRQCHRQMQQQAATAQAAAAAQAAAVAGNIPGPGSVGGIAPAISLSAAAGIGVDDLRRLCILRMSFVKGWGPDYPRQSIKETPCWIEIHLHRALQLLDEVLHTMPIADPQPLD

Variants of: B1
Conditions: with smad3_human SMAD3, P84022
smad3_human SMAD3, P84022, sequence (P84022 whole entry, looked up): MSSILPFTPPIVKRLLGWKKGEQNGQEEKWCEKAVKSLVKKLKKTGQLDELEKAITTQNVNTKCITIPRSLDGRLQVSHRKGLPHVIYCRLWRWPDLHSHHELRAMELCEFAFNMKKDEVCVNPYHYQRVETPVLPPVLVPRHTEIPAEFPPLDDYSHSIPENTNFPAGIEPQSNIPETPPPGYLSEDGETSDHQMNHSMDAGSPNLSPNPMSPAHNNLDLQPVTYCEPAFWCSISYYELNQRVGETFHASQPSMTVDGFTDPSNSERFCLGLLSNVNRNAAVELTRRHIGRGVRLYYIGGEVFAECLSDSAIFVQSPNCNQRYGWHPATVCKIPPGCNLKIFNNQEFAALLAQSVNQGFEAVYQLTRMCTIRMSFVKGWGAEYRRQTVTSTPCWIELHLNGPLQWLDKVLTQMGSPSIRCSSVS

effect of a mutation on the interaction	Variant
disrupting interaction strength	R361C

Variants of: B1
Conditions: with agap2_human AGAP2, Q99490

effect of a mutation on the interaction	Variant
with no effect	R361C

Variants of: B1
Conditions: with ajuba_human AJUBA

effect of a mutation on the interaction	Variant
with no effect	R361C

Variants of: B1
Conditions: with akt1_human AKT1, P31749

effect of a mutation on the interaction	Variant
with no effect	R361C

Variants of: B1
Conditions: with akts1_human AKT1S1, Q96B36

effect of a mutation on the interaction	Variant
with no effect	R361C

Variants of: B1
Conditions: with akt3_human AKT3, Q9Y243

effect of a mutation on the interaction	Variant
with no effect	R361C

Variants of: B1
Conditions: with alk_human ALK

effect of a mutation on the interaction	Variant
with no effect	R361C

Variants of: B1
Conditions: with aph1a_human APH1A

effect of a mutation on the interaction	Variant
with no effect	R361C

Variants of: B1
Conditions: with arc1a_human ARPC1A

effect of a mutation on the interaction	Variant
with no effect	R361C

Variants of: B1
Conditions: with asxl1_human ASXL1, Q8IXJ9

effect of a mutation on the interaction	Variant
with no effect	R361C

Variants of: B1
Conditions: with bakor_human ATG14, Q6ZNE5

effect of a mutation on the interaction	Variant
with no effect	R361C

Variants of: B1
Conditions: with atpb_human ATP5F1B

effect of a mutation on the interaction	Variant
with no effect	R361C

Variants of: B1
Conditions: with atrx_human ATRX

effect of a mutation on the interaction	Variant
with no effect	R361C

Variants of: B1
Conditions: with aurkb_human AURKB

effect of a mutation on the interaction	Variant
with no effect	R361C

Variants of: B1
Conditions: with ufo_human AXL

effect of a mutation on the interaction	Variant
with no effect	R361C

Variants of: B1
Conditions: with za2g_human AZGP1, P25311

effect of a mutation on the interaction	Variant
with no effect	R361C

Variants of: B1
Conditions: with b2mg_human B2M

effect of a mutation on the interaction	Variant
with no effect	R361C

Variants of: B1
Conditions: with bap1_human BAP1, Q92560

effect of a mutation on the interaction	Variant
with no effect	R361C

Variants of: B1
Conditions: with becn1_human BECN1, Q14457
becn1_human BECN1, Q14457, sequence (Q14457 whole entry): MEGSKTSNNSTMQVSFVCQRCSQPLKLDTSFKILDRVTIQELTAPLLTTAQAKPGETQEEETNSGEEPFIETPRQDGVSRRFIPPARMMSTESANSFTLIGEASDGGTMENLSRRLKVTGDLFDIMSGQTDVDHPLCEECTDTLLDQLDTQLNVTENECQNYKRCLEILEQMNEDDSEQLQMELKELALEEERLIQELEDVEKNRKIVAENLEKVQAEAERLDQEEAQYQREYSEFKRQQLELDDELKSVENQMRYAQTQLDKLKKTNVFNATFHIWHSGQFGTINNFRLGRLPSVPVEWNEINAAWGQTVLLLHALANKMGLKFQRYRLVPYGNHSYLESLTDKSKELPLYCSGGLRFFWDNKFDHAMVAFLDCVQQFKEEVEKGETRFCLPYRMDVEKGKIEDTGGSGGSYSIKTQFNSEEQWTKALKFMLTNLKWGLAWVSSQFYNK

effect of a mutation on the interaction	Variant
with no effect	R361C

Variants of: B1
Conditions: with birc2_human BIRC2, Q13490

effect of a mutation on the interaction	Variant
with no effect	R361C

Variants of: B1
Conditions: with braf_human BRAF

effect of a mutation on the interaction	Variant
with no effect	R361C

Variants of: B1
Conditions: with cbl_human CBL

effect of a mutation on the interaction	Variant
with no effect	R361C

Variants of: B1
Conditions: with cblb_human CBLB

effect of a mutation on the interaction	Variant
with no effect	R361C

Variants of: B1
Conditions: with ccnd1_human CCND1, P24385
ccnd1_human CCND1, P24385, sequence (P24385 whole entry): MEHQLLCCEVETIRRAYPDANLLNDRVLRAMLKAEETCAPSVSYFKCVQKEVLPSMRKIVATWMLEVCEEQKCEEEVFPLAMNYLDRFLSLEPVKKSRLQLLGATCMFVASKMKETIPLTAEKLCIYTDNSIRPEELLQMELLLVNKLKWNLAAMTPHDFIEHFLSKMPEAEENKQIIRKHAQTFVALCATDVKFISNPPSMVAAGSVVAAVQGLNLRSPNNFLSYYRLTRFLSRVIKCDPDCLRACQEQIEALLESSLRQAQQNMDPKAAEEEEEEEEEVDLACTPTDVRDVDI

effect of a mutation on the interaction	Variant
with no effect	R361C

Variants of: B1
Conditions: with ccnd2_human CCND2, P30279
ccnd2_human CCND2, P30279, sequence (P30279 whole entry): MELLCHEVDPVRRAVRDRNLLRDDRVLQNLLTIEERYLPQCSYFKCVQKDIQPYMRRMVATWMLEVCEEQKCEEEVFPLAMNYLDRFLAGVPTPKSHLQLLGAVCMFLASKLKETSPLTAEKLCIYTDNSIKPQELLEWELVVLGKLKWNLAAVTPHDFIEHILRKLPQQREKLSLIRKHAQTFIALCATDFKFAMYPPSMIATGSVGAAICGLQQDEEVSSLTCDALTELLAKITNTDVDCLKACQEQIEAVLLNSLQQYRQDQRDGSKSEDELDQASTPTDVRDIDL

effect of a mutation on the interaction	Variant
with no effect	R361C

Variants of: B1
Conditions: with ccnd3_human CCND3, P30281
ccnd3_human CCND3, P30281, sequence (P30281 whole entry): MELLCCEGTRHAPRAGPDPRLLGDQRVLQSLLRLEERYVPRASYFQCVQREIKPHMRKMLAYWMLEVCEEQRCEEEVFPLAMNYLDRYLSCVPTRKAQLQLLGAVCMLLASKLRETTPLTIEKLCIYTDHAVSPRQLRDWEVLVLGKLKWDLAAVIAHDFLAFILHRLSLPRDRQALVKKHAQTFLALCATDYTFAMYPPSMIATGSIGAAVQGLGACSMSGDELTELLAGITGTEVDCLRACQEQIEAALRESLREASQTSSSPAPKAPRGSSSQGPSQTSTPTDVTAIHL

effect of a mutation on the interaction	Variant
with no effect	R361C

Variants of: B1
Conditions: with cd44_human CD44, P16070

effect of a mutation on the interaction	Variant
with no effect	R361C

Variants of: B1
Conditions: with cd79b_human CD79B

effect of a mutation on the interaction	Variant
with no effect	R361C

Variants of: B1
Conditions: with cdk6_human CDK6, Q00534

effect of a mutation on the interaction	Variant
with no effect	R361C

Variants of: B1
Conditions: with cdn2b_human CDKN2B

effect of a mutation on the interaction	Variant
with no effect	R361C

Variants of: B1
Conditions: with cdn2c_human CDKN2C

effect of a mutation on the interaction	Variant
with no effect	R361C

Variants of: B1
Conditions: with cebpa_human CEBPA

effect of a mutation on the interaction	Variant
with no effect	R361C

Variants of: B1
Conditions: with ch3l1_human CHI3L1, P36222

effect of a mutation on the interaction	Variant
with no effect	R361C

Variants of: B1
Conditions: with ctna1_human CTNNA1, P35221

effect of a mutation on the interaction	Variant
with no effect	R361C

Variants of: B1
Conditions: with ctnb1_human CTNNB1, P35222

effect of a mutation on the interaction	Variant
with no effect	R361C

Variants of: B1
Conditions: with cul3_human CUL3, Q13618

effect of a mutation on the interaction	Variant
with no effect	R361C

Variants of: B1
Conditions: with dicer_human DICER1, Q9UPY3

effect of a mutation on the interaction	Variant
with no effect	R361C

Variants of: B1
Conditions: with duox2_human DUOX2, Q9NRD8

effect of a mutation on the interaction	Variant
with no effect	R361C

Variants of: B1
Conditions: with e2f1_human E2F1, Q01094

effect of a mutation on the interaction	Variant
with no effect	R361C

Variants of: B1
Conditions: with e2f2_human E2F2, Q14209

effect of a mutation on the interaction	Variant
with no effect	R361C

Variants of: B1
Conditions: with e2f4_human E2F4, Q16254

effect of a mutation on the interaction	Variant
with no effect	R361C

Variants of: B1
Conditions: with e2f5_human E2F5, Q15329

effect of a mutation on the interaction	Variant
with no effect	R361C

Variants of: B1
Conditions: with if4e_human EIF4E

effect of a mutation on the interaction	Variant
with no effect	R361C

Variants of: B1
Conditions: with epha7_human EPHA7, Q15375

effect of a mutation on the interaction	Variant
with no effect	R361C

Variants of: B1
Conditions: with ephb1_human EPHB1, P54762

effect of a mutation on the interaction	Variant
with no effect	R361C

Variants of: B1
Conditions: with erbb4_human ERBB4, Q15303

effect of a mutation on the interaction	Variant
with no effect	R361C

Variants of: B1
Conditions: with esr1_human ESR1, P03372

effect of a mutation on the interaction	Variant
with no effect	R361C

Variants of: B1
Conditions: with etv1_human ETV1, P50549

effect of a mutation on the interaction	Variant
with no effect	R361C

Variants of: B1
Conditions: with fadd_human FADD

effect of a mutation on the interaction	Variant
with no effect	R361C

Variants of: B1
Conditions: with facd2_human FANCD2, Q9BXW9
facd2_human FANCD2, Q9BXW9, sequence (Q9BXW9 whole entry): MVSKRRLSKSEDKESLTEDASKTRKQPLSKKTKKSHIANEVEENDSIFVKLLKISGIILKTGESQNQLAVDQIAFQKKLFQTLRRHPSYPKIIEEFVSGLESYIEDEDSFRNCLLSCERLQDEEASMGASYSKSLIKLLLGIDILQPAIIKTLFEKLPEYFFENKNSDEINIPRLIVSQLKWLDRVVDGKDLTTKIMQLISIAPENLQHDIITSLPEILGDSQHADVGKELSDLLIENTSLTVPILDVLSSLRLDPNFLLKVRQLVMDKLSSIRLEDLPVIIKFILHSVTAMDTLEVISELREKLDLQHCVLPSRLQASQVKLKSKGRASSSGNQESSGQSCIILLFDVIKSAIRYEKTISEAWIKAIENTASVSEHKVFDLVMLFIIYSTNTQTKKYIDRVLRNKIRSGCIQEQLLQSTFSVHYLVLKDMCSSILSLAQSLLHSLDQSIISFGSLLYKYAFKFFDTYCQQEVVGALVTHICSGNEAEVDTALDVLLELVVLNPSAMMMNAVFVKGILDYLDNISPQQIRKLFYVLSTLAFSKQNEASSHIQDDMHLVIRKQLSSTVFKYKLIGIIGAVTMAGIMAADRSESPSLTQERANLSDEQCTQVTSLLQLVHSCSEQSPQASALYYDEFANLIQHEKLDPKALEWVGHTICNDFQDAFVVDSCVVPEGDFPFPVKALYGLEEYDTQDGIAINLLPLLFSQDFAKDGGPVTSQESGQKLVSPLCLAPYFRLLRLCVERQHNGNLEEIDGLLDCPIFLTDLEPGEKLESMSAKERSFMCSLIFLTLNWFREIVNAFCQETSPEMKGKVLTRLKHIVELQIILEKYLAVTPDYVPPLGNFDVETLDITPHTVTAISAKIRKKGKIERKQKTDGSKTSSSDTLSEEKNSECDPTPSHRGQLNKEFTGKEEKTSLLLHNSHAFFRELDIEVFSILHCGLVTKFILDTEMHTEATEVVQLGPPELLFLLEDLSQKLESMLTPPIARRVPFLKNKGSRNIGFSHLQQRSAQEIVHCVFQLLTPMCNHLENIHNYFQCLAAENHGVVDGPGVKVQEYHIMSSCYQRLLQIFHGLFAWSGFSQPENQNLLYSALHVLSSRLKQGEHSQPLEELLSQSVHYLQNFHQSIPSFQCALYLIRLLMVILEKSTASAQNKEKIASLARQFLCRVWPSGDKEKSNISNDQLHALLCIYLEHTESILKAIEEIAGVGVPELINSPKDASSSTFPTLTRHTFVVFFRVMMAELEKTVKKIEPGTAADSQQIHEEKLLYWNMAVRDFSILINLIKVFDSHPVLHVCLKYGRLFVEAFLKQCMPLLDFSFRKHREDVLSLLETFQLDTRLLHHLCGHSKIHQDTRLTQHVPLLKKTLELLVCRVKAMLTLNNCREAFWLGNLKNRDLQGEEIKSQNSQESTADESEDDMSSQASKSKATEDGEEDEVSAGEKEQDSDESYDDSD

effect of a mutation on the interaction	Variant
with no effect	R361C

Variants of: B1
Conditions: with fgf19_human FGF19, O95750
fgf19_human FGF19, O95750, sequence (O95750 whole entry): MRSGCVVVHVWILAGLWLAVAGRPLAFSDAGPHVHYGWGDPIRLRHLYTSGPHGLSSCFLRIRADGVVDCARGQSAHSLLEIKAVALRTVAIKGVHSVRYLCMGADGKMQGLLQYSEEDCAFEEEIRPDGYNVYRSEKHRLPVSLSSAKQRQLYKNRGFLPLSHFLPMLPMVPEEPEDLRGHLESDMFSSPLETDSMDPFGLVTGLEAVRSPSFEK

effect of a mutation on the interaction	Variant
with no effect	R361C

Variants of: B1
Conditions: with fgfr3_human FGFR3, P22607
fgfr3_human FGFR3, P22607, sequence (P22607 whole entry, looked up): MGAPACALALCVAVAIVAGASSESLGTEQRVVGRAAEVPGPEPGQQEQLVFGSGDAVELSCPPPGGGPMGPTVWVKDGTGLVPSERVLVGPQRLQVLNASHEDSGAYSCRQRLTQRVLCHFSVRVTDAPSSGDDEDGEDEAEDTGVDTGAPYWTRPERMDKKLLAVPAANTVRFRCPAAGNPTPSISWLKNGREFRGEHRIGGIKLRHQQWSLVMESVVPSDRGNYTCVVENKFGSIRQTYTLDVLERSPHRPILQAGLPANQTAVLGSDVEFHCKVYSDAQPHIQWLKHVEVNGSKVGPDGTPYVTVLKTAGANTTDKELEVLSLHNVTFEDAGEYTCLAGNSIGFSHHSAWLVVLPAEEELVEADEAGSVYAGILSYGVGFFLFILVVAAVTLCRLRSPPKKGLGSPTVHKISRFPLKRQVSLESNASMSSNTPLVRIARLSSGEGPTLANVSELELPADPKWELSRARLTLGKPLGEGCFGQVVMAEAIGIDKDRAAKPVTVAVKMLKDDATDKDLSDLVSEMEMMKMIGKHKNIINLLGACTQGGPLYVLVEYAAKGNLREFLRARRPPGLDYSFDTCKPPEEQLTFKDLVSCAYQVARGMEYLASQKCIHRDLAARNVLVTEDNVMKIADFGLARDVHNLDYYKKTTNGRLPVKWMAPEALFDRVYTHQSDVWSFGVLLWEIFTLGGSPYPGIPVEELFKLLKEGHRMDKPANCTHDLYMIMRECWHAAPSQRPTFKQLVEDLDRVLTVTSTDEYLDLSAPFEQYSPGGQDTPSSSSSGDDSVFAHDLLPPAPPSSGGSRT

effect of a mutation on the interaction	Variant
with no effect	R361C

Variants of: B1
Conditions: with fgfr4_human FGFR4, P22455

effect of a mutation on the interaction	Variant
with no effect	R361C

Variants of: B1
Conditions: with foxo1_human FOXO1, Q12778
foxo1_human FOXO1, Q12778, sequence (Q12778 whole entry): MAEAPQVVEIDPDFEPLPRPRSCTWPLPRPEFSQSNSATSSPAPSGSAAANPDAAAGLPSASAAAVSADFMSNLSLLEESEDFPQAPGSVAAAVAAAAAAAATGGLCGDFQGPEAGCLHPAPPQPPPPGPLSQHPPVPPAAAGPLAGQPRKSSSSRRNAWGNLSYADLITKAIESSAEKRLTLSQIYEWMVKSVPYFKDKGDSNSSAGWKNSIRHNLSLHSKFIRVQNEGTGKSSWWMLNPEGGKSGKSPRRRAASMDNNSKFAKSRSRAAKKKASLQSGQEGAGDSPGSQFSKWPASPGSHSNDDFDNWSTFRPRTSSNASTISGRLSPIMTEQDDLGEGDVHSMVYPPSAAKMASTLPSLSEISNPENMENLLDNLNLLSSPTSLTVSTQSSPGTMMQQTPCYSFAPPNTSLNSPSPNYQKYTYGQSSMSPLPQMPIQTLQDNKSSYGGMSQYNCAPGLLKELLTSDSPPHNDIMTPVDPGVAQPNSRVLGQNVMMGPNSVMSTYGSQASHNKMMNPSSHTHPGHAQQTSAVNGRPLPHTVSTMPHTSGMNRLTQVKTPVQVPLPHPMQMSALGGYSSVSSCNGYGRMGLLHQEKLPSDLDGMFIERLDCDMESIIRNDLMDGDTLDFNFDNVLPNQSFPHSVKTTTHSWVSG

effect of a mutation on the interaction	Variant
with no effect	R361C

Variants of: B1
Conditions: with foxo3_human FOXO3, O43524

effect of a mutation on the interaction	Variant
with no effect	R361C

Variants of: B1
Conditions: with gbra6_human GABRA6, Q16445

effect of a mutation on the interaction	Variant
with no effect	R361C

Variants of: B1
Conditions: with gata2_human GATA2, P23769

effect of a mutation on the interaction	Variant
with no effect	R361C

Variants of: B1
Conditions: with gata3_human GATA3, P23771

effect of a mutation on the interaction	Variant
with no effect	R361C

Variants of: B1
Conditions: with gna11_human GNA11, P29992

effect of a mutation on the interaction	Variant
with no effect	R361C

Variants of: B1
Conditions: with gnaq_human GNAQ

effect of a mutation on the interaction	Variant
with no effect	R361C

— IntAct's records for PubMed 35512704
